From the supplement of paper PMC10724198
“And” between values parts separate entries of the source, which are not always exact repeats. Equal entries are not always repeated. ± gives the standard deviation of the averaged measurements.

Assays:
Saccharomyces cerevisiae [1] = assay: protein stability index of tFT-peptide fusion in deletion strain of DOA10 (PSI (0-1 scale)); higher = more stable (slower turnover)
Protocol: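 MPS profiling in S. cerevisiae of two library types built from selected 12-aa C-degron peptides (IN1, IN2, LN1, LN3, VN2, R1-R5, W1-W3, Atg1 and Rpa12 C-termini): saturation mutagenesis libraries and C-terminal +1 capping libraries (13 aa). Each peptide is fused to the C-terminus of a sfGFP-mCherry timer, after a GGGS linker. Cells are FACS-sorted into 8 mCherry/sfGFP bins and sequenced. PSI runs from 0 (unstable) to 1 (stable), measured once in wild type and in the das1Δ or doa10Δ background.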

Saccharomyces cerevisiae [2] = assay: protein stability index of tFT-peptide fusion in wild type (PSI (0-1 scale)); higher = more stable (slower turnover); settings: genetic background: wild type
Saccharomyces cerevisiae [3] = assay: protein stability index of tFT-peptide fusion in deletion strain of DAS1 (PSI (0-1 scale)); higher = more stable (slower turnover)
Saccharomyces cerevisiae [4] = assay: protein stability index of tFT-peptide fusion (C-terminal peptide) (PSI (0-1 scale)); higher = more stable (slower turnover); settings: genetic background: wild type; temperature: 30 C
Saccharomyces cerevisiae [5] = assay: as above
Protocol: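 MPS profiling in S. cerevisiae of the tFT-X12 degron library: putative degron peptides plus stable controls, 12 aa, fused to the C-terminus of a sfGFP-mCherry timer. Cells are FACS-sorted into 8 mCherry/sfGFP bins and deep-sequenced. PSI runs from 0 (unstable) to 1 (stable). Backgrounds are wild type, das1Δ and doa10Δ at 30 °C, and wild type, das1Δ, cdc34-1 and cdc53-1 at 37 °C; 2-3 technical replicates each.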
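Throughout, for protein stability index of tFT-peptide fusion (C-terminal peptide): PSI is a weighted mean of sequencing reads over stability bins, variants kept only with over 10 reads, mCherry proximal and sfGFP distal, peptide attached via GGGS linker.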
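Throughout, for protein stability index of tFT-peptide fusion in deletion strain of DAS1: PSI is a weighted mean of each variant's read distribution over the sorted stability bins, computed only for variants having over 10 reads in total.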
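Throughout, for protein stability index of tFT-peptide fusion in deletion strain of DOA10: PSI per variant is the weighted mean of its sequencing read distribution over the sorted stability bins, counting only variants with over 10 reads summed across bins.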
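Throughout, for protein stability index of tFT-peptide fusion in wild type: PSI derived as read-weighted mean over the 8 sorting bins, only variants exceeding 10 total reads kept, mCherry placed adjacent to the peptide and sfGFP distal.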

Sequence | protein stability index (Saccharomyces cerevisiae [1]) | protein stability index (Saccharomyces cerevisiae [2]) | also measured
AGTLPMCPLLLR | 0.671 | 0.461 | 
AIGLPMCPLLLR | 0.653 | 0.297 | 
AITLPDCPLLLR | 0.711 | 0.437 | 
AITLPHCPLLLR | 0.713 | 0.264 | 
AITLPICPLLLR | 0.667 | 0.194 | 
AITLPMAPLLLR | 0.666 | 0.253 | 
AITLPMCPILLR | 0.619 | 0.216 | 
AITLPMCPLCLR | 0.702 | 0.556 | 
AITLPMCPLLLP | 0.675 | 0.627 | 
AITLPMCPLLLRL | 0.563 | 0.12 | 
AITLPMCPLLLRY | 0.633 | 0.152 | 
AITLPMCPLWLR | 0.695 | 0.239 | 
AITLPMCPNLLR | 0.672 | 0.645 | 
AITLPMCPTLLR | 0.678 | 0.581 | 
AITLPMNPLLLR | 0.685 | 0.392 | 
AITLPMWPLLLR | 0.673 | 0.124 | 
AITLTMCPLLLR | 0.667 | 0.386 | 
AITLYMCPLLLR | 0.628 | 0.309 | 
AITPPMCPLLLR | 0.686 | 0.458 | 
AKTLPMCPLLLR | 0.672 | 0.352 | 
ALTLPMCPLLLR | 0.646 | 0.21 | 
AVTRLDAIYFRI | 0.696 | 0.317 | 
AWTLPMCPLLLR | 0.665 | 0.111 | 
CLISLPILLFFR | 0.552 | 0.0542 | 
CLRSLPILLFFR | 0.619 | 0.0732 | 
CLSSLPILLFFR | 0.641 | 0.0943 | 
CLVNLPILLFFR | 0.597 | 0.0622 | 

Sequence | protein stability index (Saccharomyces cerevisiae [1]) | protein stability index (Saccharomyces cerevisiae [2]) | also measured
CLVSLGILLFFR | 0.436 | 0.276 | 
CLVSLPDLLFFR | 0.709 | 0.188 | 
CLVSLPGLLFFR | 0.656 | 0.126 | 
CLVSLPHLLFFR | 0.67 | 0.0749 | 
CLVSLPILKFFR | 0.666 | 0.63 | 
CLVSLPILLFFA | 0.346 | 0.256 | 
CLVSLPILLFFRD | 0.594 | 0.103 | 
CLVSLPILLFFRH | 0.577 | 0.0656 | 
CLVSLPILLFFRP | 0.563 | 0.068 | 
CLVSLPILLFFRS | 0.533 | 0.0709 | 
CLVSLPILLFLR | 0.564 | 0.0512 | 
CLVSLPILLQFR | 0.642 | 0.344 | 
CLVSLPILRFFR | 0.657 | 0.612 | 
CLVSLPILYFFR | 0.605 | 0.468 | 
CLVSLPLLLFFR | 0.606 | 0.0578 | 
CLVSLPRLLFFR | 0.664 | 0.0729 | 
CNVSLPILLFFR | 0.642 | 0.0527 | 
CWVSLPILLFFR | 0.54 | 0.0534 | 
ELYMCSVGCWFR | 0.651 | 0.388 | 
ESLRVLLPLYFR | 0.683 | 0.308 | 
GEYMCSVGCWFR | 0.667 | 0.425 | 
GGYMCSVGCWFR | 0.687 | 0.439 | 
GLGMCSVGCWFR | 0.674 | 0.336 | 
GLSMCSVGCWFR | 0.671 | 0.235 | 
GLYECSVGCWFR | 0.678 | 0.526 | 
GLYMCSQGCWFR | 0.691 | 0.463 | 
GLYMCSVFCWFR | 0.365 | 0.222 | 

Sequence | protein stability index (Saccharomyces cerevisiae [1]) | protein stability index (Saccharomyces cerevisiae [2]) | also measured
GLYMCSVGCCFR | 0.651 | 0.611 | 
GLYMCSVGCWFA | 0.371 | 0.35 | 
GLYMCSVGCWFRA | 0.44 | 0.225 | 
GLYMCSVGCWFRC | 0.433 | 0.188 | 
GLYMCSVGCWFRI | 0.455 | 0.11 | 
GLYMCSVGCWRR | 0.662 | 0.62 | 
GLYMCSVGEWFR | 0.686 | 0.663 | 
GLYMCSVGYWFR | 0.603 | 0.213 | 
GLYMCSVHCWFR | 0.453 | 0.371 | 
GLYMCTVGCWFR | 0.527 | 0.219 | 
GLYMGSVGCWFR | 0.704 | 0.303 | 
GLYTCSVGCWFR | 0.682 | 0.392 | 
RLIQPLPVQFLN |  | 0.0747 and 0.0662 | protein stability index (Saccharomyces cerevisiae [3]): 0.672 and 0.598; protein stability index (Saccharomyces cerevisiae [4]): 0.0935 ± 0.0062; protein stability index (Saccharomyces cerevisiae [5]; genetic background: cdc34-1, temperature: 37 C): 0.2752 ± 0.002; protein stability index (Saccharomyces cerevisiae [5]; genetic background: cdc53-1, temperature: 37 C): 0.644 ± 0.089; protein stability index (Saccharomyces cerevisiae [5]; genetic background: das1 deletion, temperature: 30 C): 0.616 ± 0.026; protein stability index (Saccharomyces cerevisiae [5]; genetic background: das1 deletion, temperature: 37 C): 0.732 ± 0.066; protein stability index (Saccharomyces cerevisiae [5]; genetic background: doa10 deletion, temperature: 30 C): 0.0708 ± 0.018; protein stability index (Saccharomyces cerevisiae [5]; genetic background: wild type, temperature: 30 C): 0.0754 ± 0.0037; protein stability index (Saccharomyces cerevisiae [5]; genetic background: wild type, temperature: 37 C): 0.0963 ± 0.012
VRGAVGKWRLVG |  | 0.172 | protein stability index (Saccharomyces cerevisiae [3]): 0.68
VRGAVGMWRLVG |  | 0.169 | protein stability index (Saccharomyces cerevisiae [3]): 0.691
VRGAVQGWRLVG |  | 0.157 | protein stability index (Saccharomyces cerevisiae [3]): 0.682
VRGDVGGWRLVG |  | 0.108 | protein stability index (Saccharomyces cerevisiae [3]): 0.679
VRGKVGGWRLVG |  | 0.129 | protein stability index (Saccharomyces cerevisiae [3]): 0.67
VRGLVGGWRLVG |  | 0.154 | protein stability index (Saccharomyces cerevisiae [3]): 0.678
VRKAVGGWRLVG |  | 0.18 | protein stability index (Saccharomyces cerevisiae [3]): 0.665
VRMAVGGWRLVG |  | 0.132 | protein stability index (Saccharomyces cerevisiae [3]): 0.672
VRSAVGGWRLVG |  | 0.141 | protein stability index (Saccharomyces cerevisiae [3]): 0.685
WLIQPLPVQFLN |  | 0.0761 | protein stability index (Saccharomyces cerevisiae [3]): 0.643
WRGAVGGWRLVG |  | 0.174 | protein stability index (Saccharomyces cerevisiae [3]): 0.655
YSLAASFWRVVG |  | 0.128 | protein stability index (Saccharomyces cerevisiae [3]): 0.67
YTSCGYKFRTNN |  | 0.212 | protein stability index (Saccharomyces cerevisiae [3]): 0.691
